Target: chemokine receptor CXCR5 (overexpressed on CXCR5-CAR T cells) (UniProt P32302)
Assay: cell-based or functional assay

Sequence of UniProt P32302 (P32302 whole entry): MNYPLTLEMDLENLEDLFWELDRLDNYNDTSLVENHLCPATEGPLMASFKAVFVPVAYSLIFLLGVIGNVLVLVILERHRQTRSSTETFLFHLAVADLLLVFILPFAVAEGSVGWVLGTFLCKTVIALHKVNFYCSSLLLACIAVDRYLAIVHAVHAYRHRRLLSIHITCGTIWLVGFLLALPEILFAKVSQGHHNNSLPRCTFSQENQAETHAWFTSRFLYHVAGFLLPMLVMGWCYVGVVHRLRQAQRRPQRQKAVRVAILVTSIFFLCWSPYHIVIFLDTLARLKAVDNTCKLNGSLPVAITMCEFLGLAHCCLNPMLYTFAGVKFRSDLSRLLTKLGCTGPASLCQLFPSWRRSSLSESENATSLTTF

Substance: CXCL13 stably transfected in A549 cells (A549-CXCL13) (from UniProt O43927 23-109) (ligand)
- radio-isotope signal at the CXCL13 positive tumor site, EGFR-CXCR5-CAR compared with EGFR-CAR, 72 h: 3 fold
- radio-isotope signal at the CXCL13 positive tumor site, EGFR-CXCR5-CAR compared with EGFR-CAR, 168 h: 7 fold

From US20210214418A1
